Reference: article PMC7192624, “A Snu114–GTP–Prp8 module forms a relay station for efficient splicing in yeast” (Nucleic Acids Research, 2020)

Experiments:
Assay in all cases: SEC; two proteins co-produced in insect cells, both Strep-tagged; StrepTactin capture, then SEC on Superdex S200 in 10 mM TRIS-HCl pH 8.0, 300 mM NaCl, 2 mM DTT; co-purification of wt and variant complexes
Conditions in all cases: both partners purified
[1] = target: T1, Snu114^72-1008 (yeast Snu114 lacking the acidic N-terminal region) (yeast, UniProt P36048 72-1008)
T1 construct: synthetic gene; Co-purifies with endogenous GTP; source: insect cells (MultiBac baculovirus); co-produced with Prp8 constructs or alone; purified (StrepTactin, SEC); not shown: Strep tag (from the vector pIDS-C-Strep), C-terminal, kept
T1 sequence (looked up): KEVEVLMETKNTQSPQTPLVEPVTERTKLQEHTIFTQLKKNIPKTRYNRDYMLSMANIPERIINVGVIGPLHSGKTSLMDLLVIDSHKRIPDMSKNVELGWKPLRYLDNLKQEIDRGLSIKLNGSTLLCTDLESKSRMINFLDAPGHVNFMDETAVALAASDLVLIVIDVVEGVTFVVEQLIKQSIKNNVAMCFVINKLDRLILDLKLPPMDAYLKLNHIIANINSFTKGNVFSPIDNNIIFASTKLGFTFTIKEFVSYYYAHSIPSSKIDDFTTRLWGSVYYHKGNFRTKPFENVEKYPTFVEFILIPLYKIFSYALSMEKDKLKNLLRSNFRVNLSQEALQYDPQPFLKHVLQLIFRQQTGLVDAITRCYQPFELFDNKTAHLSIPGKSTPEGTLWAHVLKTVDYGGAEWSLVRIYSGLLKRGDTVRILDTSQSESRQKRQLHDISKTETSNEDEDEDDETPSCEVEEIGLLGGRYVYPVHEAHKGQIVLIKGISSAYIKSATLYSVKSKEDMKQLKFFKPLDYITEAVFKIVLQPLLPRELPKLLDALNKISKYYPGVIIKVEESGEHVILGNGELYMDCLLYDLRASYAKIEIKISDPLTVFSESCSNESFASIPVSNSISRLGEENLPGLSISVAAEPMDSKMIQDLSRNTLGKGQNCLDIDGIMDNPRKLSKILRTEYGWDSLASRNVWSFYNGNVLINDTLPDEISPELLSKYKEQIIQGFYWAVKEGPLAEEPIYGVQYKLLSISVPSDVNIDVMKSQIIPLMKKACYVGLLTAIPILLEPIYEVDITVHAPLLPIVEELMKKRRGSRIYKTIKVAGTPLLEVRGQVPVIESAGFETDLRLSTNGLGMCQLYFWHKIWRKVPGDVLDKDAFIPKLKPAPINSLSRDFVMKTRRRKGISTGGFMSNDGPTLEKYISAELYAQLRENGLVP

Snu114^72-1008 K146A = target: T2, Snu114^72-1008 K146A (yeast, UniProt P36048 72-1008, K146A)
T2 construct: Insoluble when produced alone; also called Snu114^K146A; source: insect cells, co-produced with Prp8^SBR; complex purified; not shown: Strep tag (from the vector pIDS-C-Strep), C-terminal, kept
T2 sequence (looked up): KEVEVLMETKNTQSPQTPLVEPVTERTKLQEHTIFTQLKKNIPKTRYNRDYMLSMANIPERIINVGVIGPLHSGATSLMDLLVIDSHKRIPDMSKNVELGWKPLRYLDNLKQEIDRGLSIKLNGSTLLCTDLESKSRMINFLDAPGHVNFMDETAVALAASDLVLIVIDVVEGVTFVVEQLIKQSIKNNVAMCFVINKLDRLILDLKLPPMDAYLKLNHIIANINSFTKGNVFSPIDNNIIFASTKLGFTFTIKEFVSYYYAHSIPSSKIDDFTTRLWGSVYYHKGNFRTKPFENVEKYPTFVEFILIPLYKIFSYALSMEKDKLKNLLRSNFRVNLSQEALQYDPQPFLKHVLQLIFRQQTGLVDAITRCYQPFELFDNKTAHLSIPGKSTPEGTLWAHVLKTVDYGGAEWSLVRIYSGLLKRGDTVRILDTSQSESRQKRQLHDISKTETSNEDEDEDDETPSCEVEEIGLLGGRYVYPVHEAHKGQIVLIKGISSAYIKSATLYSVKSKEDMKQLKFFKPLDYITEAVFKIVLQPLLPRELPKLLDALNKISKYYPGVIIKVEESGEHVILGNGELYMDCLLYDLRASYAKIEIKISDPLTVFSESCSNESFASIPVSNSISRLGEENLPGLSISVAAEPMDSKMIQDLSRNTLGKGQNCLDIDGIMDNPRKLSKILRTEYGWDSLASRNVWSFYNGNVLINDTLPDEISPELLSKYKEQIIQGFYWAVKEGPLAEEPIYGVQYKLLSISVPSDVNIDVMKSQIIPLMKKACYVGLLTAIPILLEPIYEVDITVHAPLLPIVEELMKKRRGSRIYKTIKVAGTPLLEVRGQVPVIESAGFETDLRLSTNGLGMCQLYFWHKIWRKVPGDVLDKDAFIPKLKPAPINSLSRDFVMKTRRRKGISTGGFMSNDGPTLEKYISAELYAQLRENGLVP

Snu114^72-1008 S190A = target: T3, Snu114^72-1008 S190A (yeast, UniProt P36048 72-1008, S190A)
T3 construct: Insoluble when produced alone; also called Snu114^S190A; source: insect cells, co-produced with Prp8^SBR; complex purified; not shown: Strep tag (from the vector pIDS-C-Strep), C-terminal, kept
T3 sequence (looked up): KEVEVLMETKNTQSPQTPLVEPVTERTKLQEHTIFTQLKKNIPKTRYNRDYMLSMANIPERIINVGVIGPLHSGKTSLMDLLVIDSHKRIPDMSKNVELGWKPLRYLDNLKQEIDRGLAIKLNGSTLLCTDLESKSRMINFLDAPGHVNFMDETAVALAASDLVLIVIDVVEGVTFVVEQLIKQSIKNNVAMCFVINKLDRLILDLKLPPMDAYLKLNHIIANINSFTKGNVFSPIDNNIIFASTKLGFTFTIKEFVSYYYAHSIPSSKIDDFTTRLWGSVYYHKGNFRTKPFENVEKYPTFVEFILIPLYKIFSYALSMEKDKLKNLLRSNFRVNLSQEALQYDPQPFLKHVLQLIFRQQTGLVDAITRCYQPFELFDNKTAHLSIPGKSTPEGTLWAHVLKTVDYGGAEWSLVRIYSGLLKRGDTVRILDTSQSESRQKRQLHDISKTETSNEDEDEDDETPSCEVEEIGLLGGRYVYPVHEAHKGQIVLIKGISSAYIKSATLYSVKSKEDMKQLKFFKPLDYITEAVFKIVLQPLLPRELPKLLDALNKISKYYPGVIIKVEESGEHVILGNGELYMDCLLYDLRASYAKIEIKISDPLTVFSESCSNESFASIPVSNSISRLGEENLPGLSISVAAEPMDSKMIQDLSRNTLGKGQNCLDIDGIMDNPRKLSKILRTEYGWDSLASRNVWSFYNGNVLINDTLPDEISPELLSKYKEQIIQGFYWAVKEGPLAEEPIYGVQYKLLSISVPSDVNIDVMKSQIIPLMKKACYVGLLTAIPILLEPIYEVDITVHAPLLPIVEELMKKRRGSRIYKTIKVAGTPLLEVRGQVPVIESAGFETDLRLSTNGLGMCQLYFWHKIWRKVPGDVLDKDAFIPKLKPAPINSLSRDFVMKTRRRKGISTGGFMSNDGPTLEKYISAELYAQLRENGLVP

Measured: binding result

B1: Prp8^SBR (Prp8 Snu114-binding region, Prp8 residues 315-555), recombinant (domain or fragment, yeast, UniProt P33334 315-555, looked up)
chain: STPLRDEVTDKNYYYLFDKKSFFNGKALNNAIPGGPKFEPLYPREEEEDYNEFNSIDRVIFRVPIRSEYKVAFPHLYNSRPRSVRIPWYNNPVSCIIQNDEEYDTPALFFDPSLNPIPHFIDNNSSLNVSNTKENGDFTLPEDFAPLLAEEEELILPNTKDAMSLYHSPFPFNRTKGKMVRAQDVALAKKWFLQHPDEEYPVKVKVSYQKLLKNYVLNELHPTLPTNHNKTKLLKSLKNTK
notes: Could not be produced alone; In the crystal residues 367-533 were modelled (416-419 and 435-449 without density); also called wt Prp8^SBR; Prp8^SBP; source: complex purified (StrepTactin, SEC); not shown: Strep tag (from the vector pFL-N-Strep), N-terminal, kept
binds: all assays above
